System: MS2 coat protein
Assay: apparent KD of MS2 coat protein; designed switch direction (-1 OFF switch, 1 ON switch): -1; higher = weaker reporter binding
Procedure, shortened: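 An oligonucleotide input, 200 uM small-molecule ligand, or no input was present during titration of SNAP-549-labelled MS2 coat protein, which was doubled from 0.7 or 1.5 nM to 3 µM. Designed RNA switches had been transcribed on Illumina chips by stalled E. coli RNA polymerase. Apparent KD per design is the median over clusters of curves fitted to normalised cluster fluorescence.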

[1] = input ligand: microRNA oligo, concentration not stated
[2] = Eterna round: R95, input ligand: microRNA oligo, concentration not stated
[3] = Eterna round: R95, input ligand: FMN 200 uM
[4] = Eterna round: R95, input ligand: none

Sequence | apparent KD of MS2 coat protein (input ligand: FMN 200 uM) [nM] | apparent KD of MS2 coat protein (input ligand: none) [nM] | further results
AAUACAAGCUAUUGAUCCCACAUGAGGAUCACCCAUGUAUAUGGCGGUGACACCUCCAUGACGAUAGCUCGUCUUAU [Sensor-V1 #58] (Eterna round: R97, puzzle: Sensor, turn-off variant 1) | 567 | 1360 | –
AAUACAAGCUAUUGAUCCCACAUGAGGAUCACCCAUGUUCCUGGCCGUGAGACAAGGUUGACAAUAGCUCGUCUUAU [Sensor-V1 #45] (Eterna round: R97, puzzle: Sensor, turn-off variant 1) | 285 | 299 | –
AAUAGUUGAGUAGGAUAUGCAUCGACCGGCCGAGCAGAAGGACUCGUGAACUUGAGGAUCACCCAAGUGUCCUCGUUUGCUUGA [Mutated MS2 EX1.16] (Eterna round: R96, puzzle: Exclusion NG 1) | 139 | 134 | apparent KD of MS2 coat protein [1]: 125 nM
AAUAUCACAGGAUAUCCGGAUUUGUACAUGAGGAUCACCCAUGUGGUGACGUAGAACUCCGGAGAAGGGUGUCCAG [Eternabot (L2) Solution 89] (Eterna round: R97, puzzle: Exclusion 5) | 29 | 161 | –
AAUCCACAUGAGGAUCACCCAUGUGAGGAUAUGAUACUAUGUACUUCGGUACAUAGUAUCAGAAGGCACAGGUC [Ex1-3: 58] (puzzle: Exclusion 1) | – | – | apparent KD of MS2 coat protein [2]: 25 nM
AAUGAGGGAGGAUAUACAUUCGGCUGUCAACAGCCCUUGGGACAUGAGGAUCACCCAUGUAGAAGGCCCGAUUA [EX2 B.20] (Eterna round: R97, puzzle: Exclusion 2) | 365 | 38.7 | –
AAUGGGUGUGUGAGGAUAUACGAUGGCAGUUGCCAGUAGAAGGUACAUGAGGAUCACCCAUGUGUCCAAAAGUG [Aquin] (puzzle: Brourd's mod of Exclusion 4) | – | – | apparent KD of MS2 coat protein [2]: 11.9 nM
AAUGUCUGAGGAUAUCGUUUUUUGUACAUGAGGAUCACCCAUGUUUUAUUUUGUAUAUUACGAGAAGGCAGUGGAA [JR_E5_Sub088] (puzzle: Exclusion 5) | – | – | apparent KD of MS2 coat protein [2]: 22.7 nM
AAUGUGUGAGGAUAUUAGUUGUACGUCAAUAGACGUAUAAGUGAGAAGGCACAUGAGGAUCACCCAUGUUCCUG [Omei Ex4 Mod of Mat's R95 mod of Omei v6] (Eterna round: R97, puzzle: Exclusion 4) | 109 | 24.9 | –
AAUUAGCAAGCAAGAUCCCACAUGAGGAUCACCCAUGUGCUCGUCUUAUAAGGUACUGUGACGAGAGUCACGGUACC [Mat - Sensor, turn-off var - Eli Mod - D48] (Eterna round: R97, puzzle: Sensor, turn-off variant 1) | 51.5 | 50.5 | –
AAUUAGCAAGCGAGAUCUCACAUGAGGAUCACCCAUGUGCUCGUCUUAUAAGGUACUGUGACGAUAGUCACGGUACC [Mat - Sensor, turn-off var - Eli Mod - D39] (Eterna round: R97, puzzle: Sensor, turn-off variant 1) | 13.2 | 14.8 | –
AAUUAGUAUGUGAGGAUAUUGACGGAAUGACUUGUUAAGAAGGCACAUGAGGAUCACCCAUGUGGGAAGUCACG [JR_BMEx4_Sub012] (Eterna round: R97, puzzle: Brourd's mod of Exclusion 4) | 57.1 | 18.1 | –
AAUUAGUAUGUGAGGAUAUUGACGUAAUGACUGGUUAAGAAGGCACAUGAGGAUCACCCAUGUGGGAAGUCACG [JR_BMEx4_Sub011] (Eterna round: R97, puzzle: Brourd's mod of Exclusion 4) | 56.8 | 15.2 | –
AAUUAUUAUUGAGGAUAUCGUAUUGAAAUAAUAUGAGAAGGCGGGAUAAACAUGAGGAUCACCCAUGUGAGCCUGAUGCUUGUG [Ex NG1 #39] (Eterna round: R96, puzzle: Exclusion NG 1) | – | – | apparent KD of MS2 coat protein [1]: 13.3 nM
AAUUCACAUGAGGAUCACCCAUGUCAGGAUAUGGUUUCACGUGUUUCUUUGCUUGAGGCCAGAAGGGACAGCUA (puzzle: Exclusion 1) | – | – | apparent KD of MS2 coat protein [2]: 67.2 nM
AAUUCACAUGAGGAUCACCCAUGUCAGGAUAUGGUUUCACUUUUUUCUUUUCUUGAUUCCAGAAGGGACAGCUA (puzzle: Exclusion 1) | – | – | apparent KD of MS2 coat protein [2]: 62.6 nM

Sequence | apparent KD of MS2 coat protein (input ligand: FMN 200 uM) [nM] | apparent KD of MS2 coat protein (input ligand: none) [nM] | further results
AAUUCGCAAGCGAGAUCCCACAUGAGGAUCACCCAUGUGCUCGUCUUAUAAGGUACUGUGACGAAAGUCACGGUACC [Mat - Sensor, turn-off var - Eli Mod - D85] (Eterna round: R97, puzzle: Sensor, turn-off variant 1) | 16.2 | 17.1 | –
AAUUCUAGGGUCAGACGCACAAGCUUUUUGUUCGUUUUAACAUGAGGAUCACCCAUGUCUAGUGGAUCUGAUCGGGC [JL ViennaUCT Isreen mod 9] (puzzle: Sensor v3, turn-off variant 2) | – | – | apparent KD of MS2 coat protein [3]: 28.6 nM; apparent KD of MS2 coat protein [2]: 71.4 nM; apparent KD of MS2 coat protein [4]: 31 nM
AAUUUACAUGAGGAUCACCCAUGUGAGGAUAUAUACAAAGAAGUGUUAGUAAGAAUGUAUAGAAGGCGCGUGAU [JR_Exc1_Sub040] (Eterna round: R97, puzzle: Exclusion 1) | 71.4 | 58.6 | –
ACAACAAGCUUUUUGAACGUAGAACAUGAAGCUCUAGUCACAUGAGGAUCACCCAUGUCAGCCAGUUAGAUAGGUGA [JR_SV3TOV2_Sub065] (puzzle: Sensor v3, turn-off variant 2) | – | – | apparent KD of MS2 coat protein [3]: 64.5 nM; apparent KD of MS2 coat protein [2]: 49 nM; apparent KD of MS2 coat protein [4]: 51.2 nM
ACAACUGUAGGAUAUACUUUCUGGGUAAGCCAUUAUACUGGACAUGAGGAUCACCCAUGUAGAAGGACAGAAAG [Eternabot (Original) Solution 36] (Eterna round: R97, puzzle: Exclusion 2) | 29.6 | 35.1 | –
ACAAGCAUUUAUCUUUUCAAAUAUUAUCGUCUUAUAAUUACAUGAGGAUCACCCAUGUAUAGAGGGUGAGAGAUACU [JR_Sensorv2_tov2_Sub552] (Eterna round: R96, puzzle: Sensor v2, turn-off variant 2) | 61.1 | 58.1 | apparent KD of MS2 coat protein [1]: 121 nM
ACAAGCUCUGUGGGUGGUGACAUGAGGAUCACCCAUGUUUUGCUCGUCUUGUGCCGGCCGGCCCGCGGCCGGCCGGC [-40.6, -69.5, A 12%] (Eterna round: R97, puzzle: Sensor, turn-off variant 1) | 718 | 885 | –
ACAAGCUUAAUCUGUAUGAACAUGAGGAUCACCCAUGUAAAAGGGAAUACUUUUGGGUUUUUUAUAGCUCGUCUUAU [JR_STOV1_Sub019] (Eterna round: R97, puzzle: Sensor, turn-off variant 1) | 52 | 49.5 | –
ACAAGCUUGUAAUGAUUGAACAUGAGGAUCACCCAUGUAAAUGGAAGAACCAAUUUGAUAAGAUAAACUCGUCUUAU [JR_STOV1_Sub005] (Eterna round: R97, puzzle: Sensor, turn-off variant 1) | 56.9 | 55.7 | –
ACAAGCUUGUAAUGAUUUAACAUGAGGAUCACCCAUGUAAAUGGAAGAACCAAUUUGAUAUGAUUUACUCGUCUUAU [JR_STOV1_Sub008] (Eterna round: R97, puzzle: Sensor, turn-off variant 1) | 495 | 589 | –
ACAAGCUUUUUGCUCGGGUACAUGAGGAUCACCCAUGUUGUGUUUUAUUGUUUUUGAUUGUUCGUGCGCUGCAGGUU [JR_SV3TOV1_Sub074] (puzzle: Sensor v3, turn-off variant 1) | – | – | apparent KD of MS2 coat protein [3]: 42.7 nM; apparent KD of MS2 coat protein [2]: 38.5 nM; apparent KD of MS2 coat protein [4]: 58.3 nM
ACACAGCAAGGAUAUACAUGAGGAUCACCCAUGUGGUGGCCGUUACGGUAGGACUAGUGUAGAAGGUGCAUUGG [EX3 #32] (Eterna round: R97, puzzle: Exclusion 3) | 637 | 469 | –
ACACUGCGAGGAUAUACAUGAGGAUCACCCAUGUUAAGGAAGUCAAGGUUAAUUUAAGGUAGAAGGCGCGUAUU [JR_Ex3_Sub012] (Eterna round: R97, puzzle: Exclusion 3) | 54.6 | 38.2 | –
ACAGUGUUAGGAUAUGUGAGAGUUAGUCUCGACUAGUCGAAGCAGAAGGAACAUGAGGAUCACCCAUGUAGAUC [EX4 #78] (Eterna round: R97, puzzle: Exclusion 4) | 114 | 46.7 | –
ACAUGACUGCUAGGAUAUAGAUGACAUGAGGAUCACCCAUGUUAUCCCAUGUUGAUGGAAACCGACUAGAAGGAGCAGCAUAUG [Ex NG2 #10] (Eterna round: R96, puzzle: Exclusion NG 2) | 53.4 | 33 | apparent KD of MS2 coat protein [1]: 24.3 nM

— the supplement of paper PMC9170038
